Consider 2 molecules from US7262005.

code Z = not defined here; fmk = not defined here

In data set [1] the target is 2XUb-DEVD-Bla fusion protein, P62593.
Another data set addresses caspases. The data set is described as follows: cell-based or functional assay.

Chain of 2XUb-DEVD-Bla fusion protein, P62593 (P62593 whole entry, looked up, the tested form may be a part): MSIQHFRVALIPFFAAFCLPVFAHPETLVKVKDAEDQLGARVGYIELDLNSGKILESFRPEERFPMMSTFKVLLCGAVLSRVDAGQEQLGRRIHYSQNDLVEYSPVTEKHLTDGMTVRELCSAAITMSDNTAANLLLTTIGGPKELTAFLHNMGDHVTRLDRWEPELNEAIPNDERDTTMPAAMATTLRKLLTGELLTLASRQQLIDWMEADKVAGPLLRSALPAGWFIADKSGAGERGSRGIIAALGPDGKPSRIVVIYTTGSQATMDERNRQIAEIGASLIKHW

B1: purified recombinant caspase-3 (protein)
chain: SGISLDNSYKMDYPEMGLCIIINNKNFHKSTGMTSRSGTDVDAANLRETFRNLKYEVRNKNDLTREEIVELMRDVSKEDHSKRSSFVCVLLSHGEEGIIFGTNGPVDLKKITNFFRGDRCRSLTGKPKLFIIQACRGTELDCGIETDSGVDDDMACHKIPVEADFLYAYSTAPGYYSWRNSKDGSWFIQSLCAMLKQYADKLEFMHILTRVNRKVATEFESFSFDATFHAKKQIPCIVSMLTKELYFYH
For B1, the “in vitro cleavage of the 35S-labeled fusion by 25 nM purified caspase-3, SDS-PAGE and autoradiography” value in data set [1] is on record as “over 90% cleavage within 5 minutes”.

For {code Z}-Val-Ala-Asp-fmk (reading uncertain; also: printed as Z-VAD-fmk) [Z-VAD-fmk], in the data set with caspases, the 460/530 emission ratio, + αFas/+ inh/+ chx, Jurkat cells expressing 2XUb-DEVD-Bla, 10 µM Z-VAD-fmk (460/530 emission ratio) came out at 0.08 and the IC50 of inhibition of anti-Fas-induced caspase activity in Jurkat cells expressing 2XUb-DEVD-Bla (β-lactamase activity, CCF2 460/530 nm ratio) worked out at 5 µM.
